Earlier results in patent US7435406B2, “Methods for conducting metabolic analyses” (Target Discovery, Inc., priority 1999, dated 2008).

Settings: protein standards obtained from Sigma-Aldrich

In the case of “Carbonic anhydrase II: protein standard from Sigma-Aldrich, Cat # T 6522”, the pl is given as 4.5.

B1: Bovine ribonuclease A: protein standard from Sigma-Aldrich, Cat # R 5503 (protein, UniProt P61823 27-150, looked up)
Ribonuclease pancreatic: KETAAAKFERQHMDSSTSAASSSNYCNQMMKSRNLTKDRCKPVNTFVHESLADVQAVCSQKNVACKNGQTNCYQSYSTMSITDCRETGSSKYPNCAYKTTQANKHIIVACEGNPYVPVHFDASV
For B1, the pl is listed as 9.6.
